This is an account of results in patent publication US11034762 (CENTIVAX, dated 2021).

Residue numbers refer to the chain shown, from its start.

The target of experiment [1] is SARS-CoV-2 Receptor Binding Domain (RBD) protein (SARS-CoV-2, UniProt P0DTC2 319-541).
In experiment [2] the target is T1, MERS Receptor Binding Domain (RBD) protein (MERS virus, UniProt K9N5Q8 367-606).
T1 construct: also called Middle East Respiratory Syndrome (MERS) virus
T1 sequence: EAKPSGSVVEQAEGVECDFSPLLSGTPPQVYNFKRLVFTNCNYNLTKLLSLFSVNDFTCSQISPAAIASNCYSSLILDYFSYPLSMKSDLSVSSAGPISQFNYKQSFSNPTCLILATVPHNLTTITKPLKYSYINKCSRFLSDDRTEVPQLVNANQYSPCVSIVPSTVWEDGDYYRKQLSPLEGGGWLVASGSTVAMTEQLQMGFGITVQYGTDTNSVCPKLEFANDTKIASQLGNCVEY
The experiment in a line: SPR; clone listed as COV2 only at the 21st table, row 52, column 3.

In experiment [3] the target is T2, SARS-CoV-1 Receptor Binding Domain (RBD) protein (SARS-CoV-1, UniProt P59594 306-527).
T2 construct: also called SARS1
Described as above.

Experiment [4] has as its target T1, MERS Receptor Binding Domain (RBD) …. The experiment in a line: SPR; clone listed as COV2 only at the 21st table, row 45, column 3.
Experiment [5] deals with T2, SARS-CoV-1 Receptor Binding Domain …. Described as above.
Experiment [6] addresses T1, MERS Receptor Binding Domain (RBD) …. Description: SPR; clone listed as COV2 only at the 21st table, row 43, column 3.
Experiment [7] deals with T2, SARS-CoV-1 Receptor Binding Domain …. The experiment is described as above.
The target of experiment [8] is T1, MERS Receptor Binding Domain (RBD) …. The experiment in a line: SPR; clone listed as COV2 only at the 21st table, row 51, column 3.
Experiment [9] concerns the target T2, SARS-CoV-1 Receptor Binding Domain …. Described as above.
Experiment [10] has as its target T1, MERS Receptor Binding Domain (RBD) …. Description: SPR; clone listed as COV2 only at the 21st table, row 36, column 3.
The target in experiment [11] is T2, SARS-CoV-1 Receptor Binding Domain …. The description is as above.
The target in experiment [12] is T1, MERS Receptor Binding Domain (RBD) …. The experiment in a line: SPR; clone listed as COV2 only at the 21st table, row 37, column 3. For orientation: In SPR one partner is held on a chip, and binding of the other changes the refractive index at the surface.
The target in experiment [13] is T2, SARS-CoV-1 Receptor Binding Domain …. Described as above.

B1: COVID19_P22_C09 (scFv, V domains shown)
VH: QVQLVQSGAEVKKPGSSVKVSCKASGYNFTDYHIQWVRQAPGQGLEWVGMIIPRHGGTAYAQRFQGRVTITADESTSTAYMELSSLRSEDTAVYYCAGGSGLTTPMDVWGQGTLVTVSS
VL: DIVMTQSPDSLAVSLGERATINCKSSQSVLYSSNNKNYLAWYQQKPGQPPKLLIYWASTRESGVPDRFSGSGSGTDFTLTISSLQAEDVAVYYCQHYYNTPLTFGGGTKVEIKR
A word on the Kd: it is a measure of binding affinity in units of concentration. The low end stands for higher affinity, the high end for lower affinity. As usually defined, the koff is the rate constant with which the complex falls apart. Low values mean slow dissociation, high ones fast dissociation. A word on the kon: it is the second-order rate constant of association. The low end stands for slower complex formation, the high end for faster complex formation. For B1, in [1], the Kd is 32.8 nM, the koff was determined as 0.0083 s⁻¹ and the kon was 250000 M⁻¹ s⁻¹. Moreover, the binding result in experiment [2] is reported as “no binding (tested: up to 300 nM)”. In addition, the binding result in experiment [3] was “no binding (tested: up to 300 nM)”.

B2: COVID19_P09_D06 (scFv, V domains shown)
VH: QVQLVQSGAEVKKPGSSVKVSCKASGYGFITYWIGWVRQAPGQGLEWMGIIYPGDSETRYAQKFQGRVTITADESTSTAYMELSSLRSEDTAVYYCAGGSGIYVPMDVWGQGTLVTVSS
VL: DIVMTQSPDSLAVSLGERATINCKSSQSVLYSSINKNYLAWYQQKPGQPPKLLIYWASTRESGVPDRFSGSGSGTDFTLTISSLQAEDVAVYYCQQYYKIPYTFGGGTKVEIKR
Turning to B2, in experiment [4], the binding result is “no binding (tested: up to 300 nM)”. For the same molecule, the binding result in experiment [5] is reported as “no binding (tested: up to 300 nM)”. In [1], the Kd is 16.4 nM, the koff amounted to 0.00538 s⁻¹ and the kon stood at 328000 M⁻¹ s⁻¹.

B3: COVID19_P22_B04 (scFv, V domains shown)
VH: B2 VH with S100E, Y103S, V104T
VL: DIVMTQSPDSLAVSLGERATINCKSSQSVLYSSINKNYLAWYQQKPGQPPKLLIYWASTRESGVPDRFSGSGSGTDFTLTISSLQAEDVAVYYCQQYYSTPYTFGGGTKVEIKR
For the molecule B3, in [6], the binding result is recorded as “no binding (tested: up to 300 nM)”. In addition, the binding result in [7] was “no binding (tested: up to 300 nM)”. Also, in [1], the Kd is 26.1 nM, the koff came to 0.015 s⁻¹ and the kon was 570000 M⁻¹ s⁻¹.

B4: COVID19_P21_H01 (scFv, V domains shown)
VH: B2 VH with I30S, I50W, Y52N, G54N, D55S, S56G, E57G, R59N, Y103S, V104T
VL: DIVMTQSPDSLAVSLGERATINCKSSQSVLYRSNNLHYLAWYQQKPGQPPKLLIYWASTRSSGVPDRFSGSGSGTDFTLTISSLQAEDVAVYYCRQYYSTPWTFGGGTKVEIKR
In experiment [1], B4 came in with a Kd of 1.38 nM, a koff of 0.00022 s⁻¹ and a kon of 160000 M⁻¹ s⁻¹. Besides, the binding result in [8] was “no binding (tested: up to 300 nM)”. Besides, the binding result in [9] was “no binding (tested: up to 300 nM)”.

B5: COVID19_P09_A09 (scFv, V domains shown)
VH: QVQLVQSGAEVKKPGSSVKVSCKASGGTFSSYAISWVRQAPGQGLEWMGIIYPGDSTTRYSQKFQGRVTITADESTSTAYMELSSLRSEDTAVYYCYSGSGISTPMDVWGQGTLVTVSS
VL: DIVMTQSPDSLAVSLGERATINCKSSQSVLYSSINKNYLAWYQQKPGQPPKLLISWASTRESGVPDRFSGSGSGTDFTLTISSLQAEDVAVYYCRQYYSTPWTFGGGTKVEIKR
In experiment [1], B5 came in with a Kd of 0.5 nM, a koff of 5.7e-05 s⁻¹ and an on-rate constant (kon) of 109000 M⁻¹ s⁻¹. In addition, the binding result in [10] is “no binding (tested: up to 300 nM)”. For the same molecule, the binding result in experiment [11] was “no binding (tested: up to 300 nM)”.

B6: COVID19_P22_B12 (scFv, V domains shown)
VH: B5 VH with F29L, T57E, Y97A, S98G, M106R, D107S
VL: DIVMTQSPDSLAVSLGERATINCKSSRILSYSPDNKNYLAWYQQKPGQPPKLLIYWASTRESGVPDRFSGSGSGTDFTLTISSLQAEDVAVYYCQQSYITPYTFGGGTKVEIKR
On to B6, for which the binding result in [12] was “no binding (tested: up to 300 nM)”. Besides, in [13], the binding result was “no binding (tested: up to 300 nM)”. In experiment [1], this molecule had a Kd of 4.24 nM, a koff of 0.00036 s⁻¹ and a kon of 85000 M⁻¹ s⁻¹.
